In patent publication US12427163B2, “Anti-VTCN1 antibodies and antibody drug conjugates” (Bluefin BioMedicine, Inc., priority 2017, dated 2025):
Entries after “also recorded” stand apart in the source; their conditions may differ.

Legend:
human VTCN1 protein = molecular target: T1, human VTCN1 protein (Homo sapiens, UniProt Q7Z7D3); test: Affinity to recombinant VTCN1-his by OCTET Red (Protein A biosensors); type: binding; conditions: Table 5
T1 construct: His
T1 sequence (Q7Z7D3 25-282): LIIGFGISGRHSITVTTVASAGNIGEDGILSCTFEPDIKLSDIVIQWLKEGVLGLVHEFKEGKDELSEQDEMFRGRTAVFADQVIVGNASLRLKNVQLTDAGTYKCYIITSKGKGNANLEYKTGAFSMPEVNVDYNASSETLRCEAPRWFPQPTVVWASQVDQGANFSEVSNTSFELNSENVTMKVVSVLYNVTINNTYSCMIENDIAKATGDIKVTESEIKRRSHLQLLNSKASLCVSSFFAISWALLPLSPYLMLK
Method: The affinity of antibodies to recombinant VTCN1 was determined on an OCTET™ Red (Pall, ForteBio) instrument. After loading reagents into a 96-well plate, the OCTET™ Red with Protein A-conjugated biosensors was programmed as follows: 30 seconds for baseline #1; 45 seconds to immobilize the antibody; 30 seconds for baseline #2; 300 seconds for association of antibody to recombinant VTCN1-his; and 300 seconds for dissociation of recombinant VTCN1-his from the antibody. Table 5 lists the affinity measured for selected antibodies.

KLN205 tumors = test: KLN205 syngeneic mouse lung squamous tumor model in DBA2 mice; type: in vivo; conditions: for KLN205 primary tumor growth, isotype comparison: Example 15, 200 μg (10 mg/kg) i.p. from day 9
Method: For the tumor study. 6-8 week-old female DBA2 mice were implanted subcutaneously in the right flank with 2.5×10^5 mouse lung squamous carcinoma KLN205 cells in 50% matrigel on day 0. Mice were treated with PBS as a vehicle control, a mouse IgG isotype control (10 mg/kg), or anti-VTCN1 6D9 antibody (10 mg/kg) on days 3, 6, 10, 13, 15, 17, 20, and 22 following tumor implantation by intraperitoneal (i.p.) injection. Tumors were measured using an electronic caliper twice a week and tumor volume was calculated using the formula 0.52*length*width*width. Mouse body weight was also measured and recorded.
6-8 week-old female DBA2 mice were implanted subcutaneously in the right flank with 2.5×10^5 mouse lung squamous carcinoma cell KLN205 cells in 50% matrigel on day 0. Tumors were measured on day 7 and mice are randomized to 7 treatment groups. The average size was 50 mm^3. The treatment groups were: PBS vehicle control, mIgG2a isotype control. 6D9, anti-mouse PD1 antibody RMP1-14, 6D9+RMP1-14, anti-mouse CTLA-4 antibody 9D9, and 6D9+9D9. The mice were treated on days 8, 11, 13, 15, 18, 20, 22, and 25. All antibodies were 10 mg/kg by i.p.
To test the activity of the 6D9 and 6D9-mIgG1 antibodies, 6-8 weeks old female DBA2 mice were implanted subcutaneously in the right flank with 0.2 million KLN205 cells in PBS on day 0. Mice were randomized on day 9 into 3 treatment groups, mIgG1 control. 6D9-mIgG1, 6D9-mIgG2a. Mice were treated on days 9, 11, 15, 18, and 22 by i.p. with 200 μg antibodies (10 mg/kg). […] However.

4T1 tumors = test: 4T1 mouse triple negative breast cancer model in Balb/C mice; type: in vivo; conditions: 6D9 10 mg/kg, gemcitabine 75 mg/kg, i.p., days 5, 8, 12, 14, 16
Method: 6-8 week-old Balb/C mice were injected with 0.1 million of 4T1 cells in the mammary fat pad. On day 5, mice were randomized to 4 treatment groups, PBS, 6D9 (10 mg/kg), Gemcitabine (75 mg/kg), and 6D9 (10 mg/kg) plus gemcitabine (75 mg/kg). All treatments were by intraperitoneal injection and mice received a total of 5 treatments on days 5, 8, 12, 14, and 16.
The tumors and lymph nodes were harvested from these mice, and cells were dissociated and subjected to immune cell profiling by flow cytometry analysis.

Hepa1-6 tumors = test: Hepa 1-6 mouse hepatoma tumor model; type: in vivo; conditions: 10 mg/kg ip. twice a week, 7 doses, from day 8
Method: The same proteomics and immunohistochemistry analysis used in Example 1 and Example 12 were also used to analyze tumors harvested from mice subcutaneously injected with Hepa 1-6 mouse hepatoma cells, and these tumors were fount to express VTCN1. To test the efficacy of anti-VTCN1 antibodies in this alternate syngeneic tumor model, 6-8 week old C57BL/6 female mice were injected with 2.5 million Hepa1-6 cells in matrigel. On day 8 after tumor cell implantation, when tumors were 100-200 mm3, tumor-bearing mice were randomized to two treatment groups and received either the isotype control, mIgG2a or the anti-VTCN1 antibody 6D9. Treatment was started on day 8 with mice receiving 10 mg/kg of antibody by ip. injection. Mice were treated at this dose level and route twice a week for a total of 7 doses. Tumor volume and body weight were recorded twice a week.

mouse VTCN1 protein = molecular target: T2, mouse VTCN1 protein (Mus musculus, UniProt Q7TSP5); test: Cross-reactivity with mouse VTCN1 protein (method not given); type: binding
T2 construct: His
T2 sequence (Q7TSP5 25-257): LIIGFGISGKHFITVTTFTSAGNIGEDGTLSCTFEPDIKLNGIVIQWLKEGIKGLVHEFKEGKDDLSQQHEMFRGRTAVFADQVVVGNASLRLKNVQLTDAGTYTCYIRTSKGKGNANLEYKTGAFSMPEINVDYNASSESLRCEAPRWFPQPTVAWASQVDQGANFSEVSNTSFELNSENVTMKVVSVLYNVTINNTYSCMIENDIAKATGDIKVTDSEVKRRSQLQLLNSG

B1: 6D9: mouse anti-human VTCN1 antibody; VH SEQ ID NO: 113, VL SEQ ID NO: 117; 6D9 represents 6D9-mIgG2a if not otherwise specified (antibody, V domains shown)
VH: QIQLQQSGPGLVQPSQSLSITCTVSGFSLTSYGVQWIRQSPGKGLEWLGVIWSSGSTDYNAAFLSRLSFSKDNSKSQVFFQMNSLQADDSAIYYCARDVTTIVEGFAHWGQGTLVTVSA
VL: NIVMTQSPKSMSMSVGERVTLSCKASEKVGTYVSWYQQKPEQSPKLLIYGASNRYTGVPDRFTGSGSATDFTLTISSVQVEDLADYHCGQTYSYPFTFGSGTKLEIK
notes: mouse anti-human VTCN1 antibody; 6D9 represents 6D9-mIgG2a if not otherwise specified
Human VTCN1 protein
  Kdis (human): 1.52 × 10^−3
  Kon (human): 6.19 × 10^5
KLN205 tumors; Example 13, 10 mg/kg i.p. from day 3
  primary tumor growth of KLN205 tumors: inhibits primary tumor growth of KLN205 tumors
KLN205 tumors; Example 14
  mice surviving at the end of the study on day 36: one mouse survived
KLN205 tumors; Example 14, 10 mg/kg i.p. from day 8
  KLN205 tumor growth, established tumors: delayed tumor growth
KLN205 tumors; Example 15
  mouse survival / time to tumor end point 1500 mm^3: prolongs the median time to endpoint irrespective of isotype
KLN205 tumors
  KLN205 primary tumor growth, isotype comparison: inhibits primary tumor growth
KLN205 tumors; listed as 6D9-mIgG2a
  KLN205 primary tumor growth, isotype comparison: inhibit primary tumor growth
4T1 tumors
  4T1 tumor growth: did not show any effect in 4T1 tumor growth
Hepa1-6 tumors
  Hepa1-6 tumor growth: inhibits primary tumor growth; also recorded: inhibits tumor growth of Hepa1-6 tumors
Mouse VTCN1 protein
  cross-reactivity with mouse VTCN1 protein: cross-reacts with mouse VTCN1 protein
